In one test the target is Hsp70 (Homo sapiens). The settings on record: cited from earlier work.
The target in the next test is SmBiT-CHIP-FLAG. Kind of test: split reporter.
Chain of SmBiT-CHIP-FLAG (Q9UNE7 whole entry): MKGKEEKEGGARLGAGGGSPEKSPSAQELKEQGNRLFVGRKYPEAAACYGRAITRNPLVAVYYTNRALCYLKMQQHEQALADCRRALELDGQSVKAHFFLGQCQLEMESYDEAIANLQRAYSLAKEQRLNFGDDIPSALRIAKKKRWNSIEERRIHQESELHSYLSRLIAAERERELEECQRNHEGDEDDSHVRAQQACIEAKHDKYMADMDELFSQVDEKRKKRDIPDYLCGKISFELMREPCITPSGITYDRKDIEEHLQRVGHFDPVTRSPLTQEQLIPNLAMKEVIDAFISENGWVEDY

Chain of CHIP TPR (Q9UNE7 21-154): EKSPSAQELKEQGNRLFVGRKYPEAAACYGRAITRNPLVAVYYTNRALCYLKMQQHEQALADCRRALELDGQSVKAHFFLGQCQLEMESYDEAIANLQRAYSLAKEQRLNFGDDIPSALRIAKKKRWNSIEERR

As for CHIP TPR (from UniProt Q9UNE7), in the test with Hsp70 (Homo sapiens), the Kd was 600 nM.

In the test with SmBiT-CHIP-FLAG, “R9-LWWPD (peptide; other documents disagree on this pair)” had an IC50 of 2600 nM and a percent reduction of luminescence at 10 μM of 40%.

As a reminder, the Kd is the concentration at which binding is half-saturated. As a reminder, the IC50 is the point on the concentration scale where inhibition reaches its midpoint. A lower IC50 goes with greater potency in that assay.
